T1: M2 muscarinic acetylcholine receptor with C-terminal split-YFP fragment YN (M2R-YN) (UniProt P08172 1-466)
T1 sequence (looked up): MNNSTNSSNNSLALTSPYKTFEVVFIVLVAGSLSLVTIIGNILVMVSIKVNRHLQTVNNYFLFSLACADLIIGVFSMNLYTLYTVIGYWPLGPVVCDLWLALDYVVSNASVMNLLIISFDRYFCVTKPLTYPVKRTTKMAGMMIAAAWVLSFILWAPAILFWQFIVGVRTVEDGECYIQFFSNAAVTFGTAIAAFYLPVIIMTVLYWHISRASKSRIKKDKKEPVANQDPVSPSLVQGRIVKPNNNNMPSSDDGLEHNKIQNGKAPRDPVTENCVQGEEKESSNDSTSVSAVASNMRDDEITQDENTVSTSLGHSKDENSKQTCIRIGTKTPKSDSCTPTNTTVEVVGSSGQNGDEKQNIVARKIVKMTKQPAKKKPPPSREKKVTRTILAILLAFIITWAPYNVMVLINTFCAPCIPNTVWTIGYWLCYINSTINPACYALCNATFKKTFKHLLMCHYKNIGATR


Tests used:
[1] = biological target: M2 muscarinic acetylcholine receptor with C-terminal split-YFP fragment YN (M2R-YN) (UniProt P08172)
[2] = biological target: M2 muscarinic acetylcholine receptor with C-terminal split-YFP fragment YN (M2R-YN) (UniProt P08172); remark: listed apart in the source
[3] = biological target: T1, M2 muscarinic acetylcholine receptor …; experiment: cell-based or functional assay

Gαo ins4A (four-alanine insertion in the C-terminal α5-helix) with internal split-YFP fragment YC at Gly92, sequence (P09471 whole entry, the tested form may be a part): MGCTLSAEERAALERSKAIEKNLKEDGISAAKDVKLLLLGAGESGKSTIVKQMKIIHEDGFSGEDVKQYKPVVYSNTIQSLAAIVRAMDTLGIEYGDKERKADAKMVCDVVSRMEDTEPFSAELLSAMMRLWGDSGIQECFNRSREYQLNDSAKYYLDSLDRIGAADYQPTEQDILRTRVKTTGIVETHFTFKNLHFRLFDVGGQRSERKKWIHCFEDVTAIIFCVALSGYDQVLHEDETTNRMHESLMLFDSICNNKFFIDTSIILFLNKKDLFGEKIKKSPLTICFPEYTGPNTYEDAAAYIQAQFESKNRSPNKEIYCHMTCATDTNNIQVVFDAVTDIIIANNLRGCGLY

Row | reduction of ACh-mediated M2R phosphorylation (pT307/pS309 relative to total M2R) in immunoprecipitated split-YFP complexes, 100 μM ACh for 5 min [1] | reduction of ACh-mediated phosphorylation (pT307/pS309 relative to total receptor) of immunoprecipitated GFP-M2R with co-expressed UNTAGGED Gαo ins4A, 100 μM ACh for 5 min [2] | reduction of ACh-mediated phosphorylation (pT307/pS309 relative to total receptor) of immunoprecipitated GFP-M2R with co-expressed UNTAGGED Gαo insPQ, 100 μM ACh for 5 min [3] | Molecule
1 | > 90% | 95% |  | Gαo ins4A (four-alanine insertion in the C-terminal α5-helix) with internal split-YFP fragment YC at Gly92 (from UniProt P09471 1-354) (natural protein)
2 |  |  | 30% | Gαo T241_N242insPQ with internal split-YFP fragment YC at Gly92 (natural protein, UniProt P09471 1-354, looked up) MGCTLSAEERAALERSKAIEKNLKEDGISAAKDVKLLLLGAGESGKSTIVKQMKIIHEDGFSGEDVKQYKPVVYSNTIQSLAAIVRAMDTLGIEYGDKERKADAKMVCDVVSRMEDTEPFSAELLSAMMRLWGDSGIQECFNRSREYQLNDSAKYYLDSLDRIGAADYQPTEQDILRTRVKTTGIVETHFTFKNLHFRLFDVGGQRSERKKWIHCFEDVTAIIFCVALSGYDQVLHEDETTPQNRMHESLMLFDSICNNKFFIDTSIILFLNKKDLFGEKIKKSPLTICFPEYTGPNTYEDAAAYIQAQFESKNRSPNKEIYCHMTCATDTNNIQVVFDAVTDIIIANNLRGCGLY
